Patent US20150329642A1 (Genmab, published 2015)
Numbering of substitutions follows the chain as printed. One block for each binder: values may come before it.

What was measured:
[1] = target: T1, human c-Met, membrane-bound on cells (human, UniProt P08581 25-1390); assay: flow cytometry on A431 cells (PE goat anti-human IgG); top panel
T1 construct: whole, on cells; A431 cells carry on average 30,000 copies of c-Met per cell (Qifi); also called c-Met expressed on A431 cells; c-Met on A549 cells
Method: (§1) The binding of anti-c-Met antibodies and monovalent forms thereof (also termed “UniBody molecules” herein, see Example 5) to A431 cells expressing membrane-bound c-Met (purchased at ATCC, CRL-1555) was tested using flow cytometry (FACS Canto II, BD Biosciences). […] Binding of anti-c-Met antibodies and UniBody molecules was detected using a Phycoerythrin-conjugated goat-anti-human IgG antibody (Jackson). IgG1-5D5 was used as positive control antibody, and HuMab-KLH was used as isotype control antibody. EC₅₀ values were determined by means of non-linear regression (sigmoidal dose-response with variable slope) using GraphPad Prism V4.03 software (GraphPad Software, San Diego, Calif., USA).
(§2) Also maximum binding levels were unchanged between IgG1's and UniBody molecules. For antibodies 005, 006, 008, 035, 045 and 058, on the other hand, a more than 2-fold […] as well as a decrease in maximum binding level was observed when comparing IgG1 with their UniBody counterpart. This was most likely due to the […] (Kd) of these antibodies (see Example 14).

[2] = target: T1, human c-Met, membrane-bound on cells; assay: flow cytometry on A431 cells
Method: as §1, §2

[3] = target: T1, human c-Met, membrane-bound on cells; assay: flow cytometry on A431 cells (PE goat anti-human IgG); second panel
Method: as §1, §2

[4] = target: T1, human c-Met, membrane-bound on cells; assay: cell-based or functional assay
[5] = target: T2, recombinant human c-Met extracellular domain (R&D systems) (human, UniProt P08581 25-932); assay: competition ELISA, residual Europium-HGF signal at 615 nm at the lower plateau of the fit; sheet prints no competing mAb ~66000, no HGF-Europium ~600; lower panel
T2 construct: extracellular domain; Bought reagent; also called coated extracellular domain of c-Met; recombinant c-Met
Method: (§3) ELISA wells were coated overnight at 4° C. with 0.5 μg/mL recombinant human c-Met extracellular domain (R&D systems, Minneapolis, USA) diluted in PBS. Next, the ELISA wells were washed with PBST (PBS supplemented with 0.05% Tween-20 [Sigma-Aldrich, Zwijndrecht, The Netherlands]) and blocked for one hour at room temperature (RT) with PBST supplemented with 2% (v/v) chicken serum (Gibco, Paisley, Scotland). […] Mean fluorescence intensity at 615 nm was measured using the EnVision 2101 Multilabel reader (PerkinElmer) applying the following settings: Lance/Delfia dual mirror, emission filter 615, excitation filter 340 nm, delay time 400 μs, window 400 μs, 100 flashes, 2000 μs per cycle and bidirectional row-by-row reading. To determine IC₅₀ values, the binding curves were analyzed with non-linear regression (sigmoidal dose-response with variable slope, top-values constrained to a shared value for all data-sets) using GraphPad Prism V4.03 software (GraphPad Software, San Diego, Calif., USA).
(§4) FIG. 5 depicts representative examples of HGF binding inhibition curves of anti-c-Met antibodies for binding to the extracellular domain of recombinant human c-Met. 5D5 was used as positive control antibody. All anti-c-Met antibodies in the experiment shown were able to compete with Europium^{3±}-conjugated HGF for binding to recombinant c-Met. […] Without adding Europium³⁺-conjugated HGF, roughly ˜600 relative fluorescent units (RFU) were detected, indicating the signal when maximal inhibition is accomplished. When binding of Europium³⁺-conjugated HGF was not inhibited, approximately ˜66,000 RFU were detected.

cMetECDHis = target: T3, cMetECDHis (human, UniProt P08581 25-932, limits assumed, biotinylated in the cross-block ELISA of Example 17); assay: BLI (Octet); antibody captured, cMetECDHis in solution
T3 construct: Expressed in HEK-293F cells; also called soluble cMetECDHis; biotinylated cMetECDHis
Method: Antibody binding to cMetECDHis was analyzed by means of Bio-Layer Interferometry (BLI) technology on the Octet System (Fortebio, Menlo Park, USA). Anti-human IgG coated biosensors (Fc-specific) were used to capture anti-c-Met antibodies according to the procedure recommended by the manufacturer. cMetECDHis derived from HEK293 cells was loaded on top of the immobilized anti-c-Met antibodies by placing the loaded biosensor into a well containing 10 μg/mL cMetECDHis diluted in 10 times diluted kinetics buffer (Fortebio). The difference in reflection of light (AA, nm) of the biosensor surface due to the binding of cMetECDHis was measured in real time during approximately 10 minutes and was used by the Octet software (V4.0, Fortebio) to calculate the association constant (kₐ [1/M×s]). Next, the loaded biosensor was placed into a well containing only kinetics buffer (10 times diluted in PBS) to determine the dissociation constant (kd [1/s]). Kinetics analysis was performed to determine the affinity (KD [M]) using model 1:1 (langmuir). As a positive control, 0.2 μg/mL 5D5 IgG1 produced in HEK293 cells, was used.

[6] = target: T2, recombinant human c-Met extracellular …; assay: competition ELISA on coated recombinant c-Met extracellular domain; blocked ligand Europium-conjugated HGF; column headed EC50 on the sheet, called IC50 in paragraph 270; lower panel
Method: as §3, §4

B2: IgG4-058 (antibody, V domains shown)
VH: EVQLVESGGGLVKPGGSLKLSCAASGFTFSDYYMYWVRQTPEKRLEWVATISDDGSYTYYPDSVKGRFTISRDNAKNNLYLQMSSLKSEDTAMYYCAREGLYYYGSGSYYNQDYWGQGTLVTVSS
VL: AIQLTQSPSSLSASVGDRVTITCRASQGLSSALAWYRQKPGKAPKLLIYDASSLESGVPSRFSGSGSGTDFTLTISSLQPEDFATYYCQQFTSYPQITFGQGTRLEIK
notes: IgG4 format of clone 058; also called IgG4-1016-058
EC50 [1]: 0.276 nM

B4: Uni-1016-006 (other)
VH: QVQLVQSGAEVKKPGSSVKVSCKASGGTFSSFGIGWVRQAPGQGLEWMGRIFPILGTANYAQMFQGRVTITADKSTSTAYMELTSLRSEDTAVYYCARDVGYDSADAFDIWGQGTMVTVSS
VL: DIQMTQSPSSLSASVGDRVTITCRASQGISSWLAWYQQKPEKAPKSLIYAASSLQSGVPSRFSGSGSGTDFTLTISSLQPEDFATYYCQQYNSYPPTFGQGTKVEIK
notes: also called UniBody molecule of antibody 006
EC50 [1]: 0.323 nM
EC50 [3]: 13.9 nM
fold change of EC50, UniBody molecule against IgG1 of the identical clone [2]: > 2 fold

The next lines start with results.

EC50 [1]: 0.67 nM
fold change of EC50, UniBody molecule against IgG1 of the identical clone [2]: > 2 fold
B1: Uni-1016-058-TE (other)
VH: B2 VH
VL: B2 VL
notes: also called UniBody molecule of antibody 058

EC50 [3]: 1.66 nM
fold change of EC50, UniBody molecule against IgG1 of the identical clone [2]: < 2 fold
B3: Uni-1016-022-TE (other)
VH: QVQLVESGGGVVQPGRSLRLSCAASGFTFSSYAMHWVRQAPGKGLEWVAVISYDGSNKYYADSVKGRFTISRDNSKNTLYLQMNSLRAEDTAVYYCARELLWFGELWGYFDLWGRGTLVTVSS
VL: B4 VL with L11V, Q38H, E41G, S46L, Q90E, Y91A, N92S, Y94F, P95T, P96W
notes: also called UniBody molecule of antibody 022
percentage inhibition of viable KP4 cells (Alamarblue) [4]: 57%

Bottom [5]: 24800 RFU
Kd (cMetECDHis): 2.55 nM
koff (cMetECDHis): 0.0005 s⁻¹
kon (cMetECDHis): 196000 M⁻¹ s⁻¹
IC50 [6]: 0.0152 µg/mL
B5: anti-c-Met HuMab 096 (IgG1) (antibody, V domains shown)
VH: EVQLVQSGAEVKKPGESLKISCKGSGYSFTSYWIGWVRQMPGKGLEWMGIIYPGDSDTRYSPSFQGQVTISADKSISTAYLQWSSLKASDTAMYYCARQEITGDFDYWGQGTLVTVSS
VL: B4 VL with D1A, M4L, W32A, E41G, K45N, S46L, Q55E, Y91F, P96L, Q100G
notes: also called TH1016-096; PC1016-096
